Earlier results on 1 molecule are cited in publication PMC3184957, “Improving a Natural CaMKII Inhibitor by Random and Rational Design” (PLoS ONE, 2011).

The series concerns the target T1, CaMKIIα (Rattus norvegicus, UniProt P11275).
T1 construct: made in house; host or cells: baculovirus/Sf9 (CaMKII); bacteria (CaM)
The conditions noted are these: background statement of the abstract, no reference given; read-out: IC50 of CaMKII inhibition by CaM-KIIN. As for the experimental part: Background CaM-KIIN has evolved to inhibit stimulated and autonomous activity of the Ca^2+/calmodulin (CaM)-dependent protein kinase II (CaMKII) efficiently, selectively, and potently (IC50 ∼100 nM). The CN class of peptides, derived from the inhibitory region of CaM-KIIN, provides powerful new tools to study CaMKII functions. The goal of this study was to identify the residues required for CaMKII inhibition, and to assess if artificial mutations could further improve the potency achieved during evolution. Methodology/Principal Findings First, the minimal region with full inhibitory potency wa ...

B1: CaM-KIIN: natural CaMKII inhibitor protein expressed in brain (protein, UniProt Q7Z7J9 1-78, looked up)
Calcium/calmodulin-dependent …: MSEVLPYGDEKLSPYGDGGDVGQIFSCRLQDTNNFFGAGQNKRPPKLGQIGRSKRVVIEDDRIDDVLKNMTDKAPPGV
As to B1, the IC50 was about 100 nM.
